Experimental data taken from patent US20250320312A1 (OXITOPE PHARMA B V, published 2025).
Substitutions are numbered along the chain they refer to.

B1: PcOxP_DB01_G12 (scFv, V domains shown)
VH: EVQLLESGGGLVQPGGSLRLSCAASGFTFSDGYMEWVRQAPGKGLEWVAASRNKANDYTTEYADSVKGRFTISRDNSKNTLYLQMNSLRAEDTAVYYCARDYYGSSYWYFDVWGQGTLVTVSS
VL: DIQMTQSPSSLSASVGDRVTITCTASESLYSSKHKVHYLAWYQQKPGKAPKLLIYGASNRYFGVPSRFSGSGSGTDFTLTISSLQPEDFATYYCAQFYSYPLTFGGGTKVEIK
notes: scFv in periplasmic extract
B2: PcOxP_DB01_H04 (scFv, V domains shown)
VH: B1 VH with T28A, G32F, S106H
VL: B1 VL with R60L, Y61Q, F62S, S99Y
notes: scFv in periplasmic extract
B3: PcOxP_DB01_H10 (scFv, V domains shown)
VH: B1 VH with A55N
VL: B1 VL with S99Q
notes: scFv in periplasmic extract
B4: PcOxP_DB02_A06 (scFv, V domains shown)
VH: B1 VH with G32Q
VL: B1 VL with A57L, F62I
notes: scFv in periplasmic extract
B5: PcOxP_DB02_A09 (scFv, V domains shown)
VH: B1 VH with G32T
VL: B1 VL with Y61Q, F62S, S99W
notes: scFv in periplasmic extract
B6: PcOxP_DB02_A10 (scFv, V domains shown)
VH: B1 VH with T28A, G32F
VL: B1 VL with Y61Q, F62S, S99A
notes: scFv in periplasmic extract
B7: PcOxP_DB02_A11 (scFv, V domains shown)
VH: B1 VH with K54I
VL: B1 VL with F62H, S99Y
notes: scFv in periplasmic extract
B8: PcOxP_DB02_A12 (scFv, V domains shown)
VH: B1 VH with G32D, Y103Q
VL: B1 VL with S58F, F62T, S99T
notes: scFv in periplasmic extract
B9: PcOxP_DB02_B02 (scFv, V domains shown)
VH: B1 VH with G32Y, K54S, A55G
VL: B1 VL with Y61L, F62I, S99W
notes: scFv in periplasmic extract
B10: PcOxP_DB02_B06 (scFv, V domains shown)
VH: B1 VH with G32N
VL: B1 VL with F62I, A95T
notes: scFv in periplasmic extract
B11: PcOxP_DB02_B10 (scFv, V domains shown)
VH: B1 VH with F29E, G32F
VL: B1 VL with F62I, S99V
notes: scFv in periplasmic extract
B12: PcOxP_DB02_B12 (scFv, V domains shown)
VH: B1 VH with G32Y
VL: B1 VL with A57Q, F62I
notes: scFv in periplasmic extract
B13: PcOxP_DB02_C01 (scFv, V domains shown)
VH: B1 VH with G32A
VL: B1 VL with F62I
notes: scFv in periplasmic extract
B14: PcOxP_DB02_C02 (scFv, V domains shown)
VH: B1 VH with G32F, T60V, S105H
VL: B1 VL with F62I
notes: scFv in periplasmic extract
B15: PcOxP_DB02_C06 (scFv, V domains shown)
VH: B1 VH with G32A
VL: B1 VL with S28W, Y61N, F62I, S99Y
notes: scFv in periplasmic extract
B16: PcOxP_DB02_C09 (scFv, V domains shown)
VH: B1 VH with G32A
VL: B1 VL with S58G, F62I, S99F
notes: scFv in periplasmic extract
B17: PcOxP_DB02_C11 (scFv, V domains shown)
VH: B1 VH with F29S, G32F, T59Y
VL: B1 VL with F62I
notes: scFv in periplasmic extract
B18: PcOxP_DB02_D01 (scFv, V domains shown)
VH: B1 VH with T28G, G32F, N53H
VL: B1 VL with F62I, S99W
notes: scFv in periplasmic extract
B19: PcOxP_DB02_D09 (scFv, V domains shown)
VH: B1 VH with D31T, G32F
VL: B1 VL with F62G, S99E
notes: scFv in periplasmic extract
B20: PcOxP_DB02_D10 (scFv, V domains shown)
VH: B1 VH with G32Q
VL: B1 VL with S26T, F62T
notes: scFv in periplasmic extract
B21: PcOxP_DB02_E01 (scFv, V domains shown)
VH: B1 VH with G32Q
VL: B1 VL with N59G, F62I
notes: scFv in periplasmic extract
B22: PcOxP_DB02_E10 (scFv, V domains shown)
VH: B1 VH with G32Q, T59Q
VL: B1 VL with S32G, R60L, Y61Q, F62I, S99Y
notes: scFv in periplasmic extract
B23: PcOxP_DB02_F02 (scFv, V domains shown)
VH: B1 VH with G32F
VL: B1 VL with T24F, Y61G, F62I
notes: scFv in periplasmic extract

Target: Peptide 5: Biotin-…-[Tyr(PC)]-acid
Assay: scFv ELISA

Binder | OD450 [OD450]
B1 | 1.33
B2 | 1.92
B3 | 1.39
B4 | 1.07
B5 | 1.3
B6 | 0.9
B7 | 0.89
B8 | 0.27
B9 | 0.98
B10 | 0.79
B11 | 1.03
B12 | 1.34
B13 | 1.47
B14 | 0.62
B15 | 1.03
B16 | 1.01
B17 | 0.24
B18 | 0.35
B19 | 0.44
B20 | 1.01
B21 | 0.63
B22 | 0.79
B23 | 0.6

Target: Peptide 1: Biotin-…-[Tyr(PC)]-acid
Assay: scFv ELISA

Binder | OD450 [OD450]
B1 | 0.75
B2 | 2.01
B3 | 0.6
B4 | 1.12
B5 | 0.98
B6 | 0.42
B7 | 0.64
B8 | 0.2
B9 | 0.49
B10 | 0.35
B11 | 0.67
B12 | 2.33
B13 | 1.03
B14 | 0.35
B15 | 0.54
B16 | 0.69
B17 | 0.12
B18 | 0.31
B19 | 0.16
B20 | 0.69
B21 | 0.43
B22 | 0.52
B23 | 0.37

Target: BSA (UniProt P02769)
Sequence (P02769 25-607 limits assumed): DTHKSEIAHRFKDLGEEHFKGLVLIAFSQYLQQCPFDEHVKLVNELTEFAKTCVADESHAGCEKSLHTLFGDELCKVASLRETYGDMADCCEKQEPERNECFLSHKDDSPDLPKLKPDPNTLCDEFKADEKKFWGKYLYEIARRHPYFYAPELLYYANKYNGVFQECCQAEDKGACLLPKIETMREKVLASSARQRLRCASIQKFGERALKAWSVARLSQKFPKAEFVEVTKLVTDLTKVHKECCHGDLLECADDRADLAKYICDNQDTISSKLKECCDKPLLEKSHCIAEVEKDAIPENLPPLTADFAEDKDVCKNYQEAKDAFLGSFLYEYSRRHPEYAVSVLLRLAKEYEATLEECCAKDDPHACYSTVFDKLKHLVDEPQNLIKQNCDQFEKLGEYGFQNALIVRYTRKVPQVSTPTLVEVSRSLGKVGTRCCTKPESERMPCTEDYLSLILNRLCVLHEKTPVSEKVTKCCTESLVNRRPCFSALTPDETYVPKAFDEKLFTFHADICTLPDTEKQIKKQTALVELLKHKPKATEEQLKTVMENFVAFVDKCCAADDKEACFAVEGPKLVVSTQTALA
Assay: scFv ELISA

Binder | OD450 [OD450]
B1 | 0.09
B2 | 0.11
B3 | 0.08
B4 | 0.1
B5 | 0.11
B6 | 0.11
B7 | 0.09
B8 | 0.06
B9 | 0.11
B10 | 0.11
B11 | 0.08
B12 | 0.1
B13 | 0.1
B14 | 0.1
B15 | 0.11
B16 | 0.1
B17 | 0.1
B18 | 0.09
B19 | 0.11
B20 | 0.1
B21 | 0.11
B22 | 0.09
B23 | 0.11

Target: T1, Peptide 8: Biotin-AEAAAKEAAAKEAAAKEAAAKAAA-Tyr-acid (N-terminal biotin; C-terminal acid)
T1 construct: control peptide without PC
T1 peptide: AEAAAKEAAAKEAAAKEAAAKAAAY
Assay: scFv ELISA
Protocol: (§1) For ELISA analysis of scFv binding, 96-well polystyrene plates were coated with Peptide 1, 4, 5, 8 or 100 μL BSA (10 μg/mL) in PBS at 4° C. overnight. Plates were washed three times with PBS-Tween and blocked with 100 μL 1% BSA-TBS for 1 hour at room temperature. 96-well streptavidin coated plates were coated with 100 μL biotinylated PC-peptides (1 μg/mL) in PBS for 1 hour at room temperature.
(§2) All plates were washed three times with PBS-Tween before 40 μL aliquots of PPE were added to assay plates along with 50 μL 10% BSA, and plates were incubated for 1 hour at room temperature. After washing, […] HRP conjugated anti-V5 in 5% BSA was added, and plates were incubated at room temperature for 30 mins. Plates were washed and 100 μL TMB substrate was added. Color was left to develop at room temperature before the reaction was stopped with 100 μL 1N HCl. The amount of scFv bound to each well was quantitated from absorbance measurement at 450 nm (OD450).

Binder | OD450 [OD450]
B1 | 0.06
B2 | 0.07
B3 | 0.06
B4 | 0.05
B5 | 0.04
B6 | 0.04
B7 | 0.04
B8 | 0.06
B9 | 0.05
B10 | 0.04
B11 | 0.04
B12 | 0.04
B13 | 0.05
B14 | 0.05
B15 | 0.05
B16 | 0.04
B17 | 0.04
B18 | 0.05
B19 | 0.04
B20 | 0.04
B21 | 0.1
B22 | 0.04
B23 | 0.05

Target: T2, Peptide 4: Biotin-AGGGGSGGGGSGGGGSAAA-Tyr-acid (N-terminal biotin; C-terminal acid)
T2 construct: control peptide without PC
T2 peptide: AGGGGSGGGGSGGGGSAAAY
Assay: scFv ELISA
Protocol: as §1, §2

Binder | OD450 [OD450]
B1 | 0.07
B2 | 0.07
B3 | 0.06
B4 | 0.05
B5 | 0.05
B6 | 0.05
B7 | 0.04
B8 | 0.05
B9 | 0.05
B10 | 0.07
B11 | 0.04
B12 | 0.05
B13 | 0.06
B14 | 0.05
B15 | 0.05
B16 | 0.05
B17 | 0.05
B18 | 0.05
B19 | 0.05
B20 | 0.05
B21 | 0.05
B22 | 0.04
B23 | 0.05
